{"source": "the DeepSol protein solubility set", "data": [{"assay": "soluble on expression in E. coli; label from the status in PepcDB or PDB records", "values": [{"sequence": "MGDDLDSLTDQLSSGFQVDPLALGEHPRYSQYKNLTKAAEQQAKRREETLERQKNGRFDTFMKLRNLAFDDVTSDEDDEQKIETTTAEKHTGKFKKYADKMMLSEWLVDIPESLSSDWTMVMAPVGKRTLVVASRGFTVAYNKGGREVSRFQSRLPGGNTRAKNQAWTILDCIYSNQTYYVLDLLSWNAHEYVESPYDFRQFMLKSKLEEAPELAKSTPGFRNIFSPIPSCPCSQDQMAELMKNEISFRLDGLLFYHNSVVYQPGQSPLVGWLKPWMLPEILNVPVPEKYKAESNGQSSSQFIESFNQKHKHQSKIDRSMEH", "soluble on expression in E. coli": "not soluble"}, {"sequence": "MGDVSKLSSNQVKLLETAFRDFETPEGSGRVSTDQIGIILEVLGIQQTKSTIRQLIDEFDPFGNGDIDFDSFKIIGARFLGEEVNPEQMQQELREAFRLYDKEGNGYISTDVMREILAELDETLSSEDLDAMIDEIDADGSGTVDFEEFMGVMTGGDE", "soluble on expression in E. coli": "soluble"}, {"sequence": "MGDYDYLIKFLALGDSGVGKTSFLHRYTDNTFTGQFISTVGIDFKEKKVVYKSSRGGFGGRGQRVLLQLWDTAGQERFRSLTTAFFRDAMGFILIFDITNEQSFLNIRDWLSQLKVHAYCEQPDIIICGNKADLENRRQVSTARAKQLADQLGLPYFETSACTSTNVEKSVDCLLDLVMQRIQQSVETSSLPLSECRGVSLDGDPSAASSYCANC", "soluble on expression in E. coli": "not soluble"}, {"sequence": "MGENSLWNVYKTVSFWKVMKNFIIIQIARYTPCLSVKNWLYRTFLRMKVGKKTSFALMVMPDIMFPEKITVGENSIIGYNTTLLAHEYLIREYRLGEIVIGNEVMIGANVTILPGVKIGDGATVSAGTLVHRDVPSGAFVGGNPMRIIYTLEHHHHHH", "soluble on expression in E. coli": "soluble"}, {"sequence": "MGEQDPSDRLRGDQLKEPNQNGKGSFSQFSSSVRAMVRIRMKYQAIKKRRMEIASATPQIFTSPRSTSPKVFTFDNLHEPVNSNPASPRKRKKKRKGRVLYPTSSLRAVPTKESSRAKNCLYLLCIIVFLQVYNAIENLDDHVLKYDLEGLEKTLKREVFGQQEVAEGLLGHLQDYLSTYVHNKPLVLSFHGPTGVGKSHVGRLLAQHFRSVVGEELVMQYFVLHHCPTDDDIPVCTKSLESHISEMVSQGEEEEKIPVFIFDEVEHMPRQLMDTLRELIQPQNSNKYLNAIYILISNLGHEDITKFVLHNSSIAISGRLSLTQELTPWLRNYLQEHHGLFLDAEYLPFMLLEKSHVMDCFIDEMSREGFYPDRSHVERLAEELSYYIVGEREFSHTGCRQVVAKVNLL", "soluble on expression in E. coli": "soluble"}, {"sequence": "MGFDFLGFTVRQFPVGKYHSGKSSSGKLLGYKTLITPSKAKLKIHAQKIGKLIDEHKAVPQSDLIAHLNPVIRGWTNYYSCVVSKRIFNQADTTLFSQLKAWAEHRHPNKSSRWSCQKYWQTVGSDNWVFKPHNQKIRLLKHRETRLEHHHHHH", "soluble on expression in E. coli": "soluble"}, {"sequence": "MGFFDRLKAGLAKTRERLLKAIPWGGNLEEVLEELEMALLAADVGLSATEEILQEVRASGRKDLKEAVKEKLVGMLEPDERRATLRKLGFNPQKPKPVEPKGRVVLVVGVNGVGKTTTIAKLGRYYQNLGKKVMFCAGDTFRAAGGTQLSEWGKRLSIPVIQGPEGTDPAALAYDAVQAMKARGYDLLFVDTAGRLHTKHNLMEELKKVKRAIAKADPEEPKEVWLVLDAVTGQNGLEQAKKFHEAVGLTGVIVTKLDGTAKGGVLIPIVRTLKVPIKFVGVGEGPDDLQPFDPEAFVEALLED", "soluble on expression in E. coli": "soluble"}, {"sequence": "MGFFSSLSSLFGLGKKDVNIVVVGLDNSGKTTILNQLKTPETRSQQIVPTVGHVVTNFSTQNLSFHAFDMAGQMKYRSTWESYFHSSQGVIFVLDSSDRLRMELLKDELMMVMEHKDVVSRGIPIVILANKMDIPGAMTASDITVALGLNLYRSGTWSIHSTCALTGDGLDKAMQQLSAEITKYMESRRT", "soluble on expression in E. coli": "not soluble"}, {"sequence": "MGFHLRGNNDFAFKRLYINLPQNSQMRAQLRRLIDNGSDTVVVSDKQDADAFLDVLSENRVKTISSLTPQGVVREYRITYRFSFQLRDAHDNLLIPPSEITLFRDLSYNETQVLAKDYEEAALYRDMQGDIVNQLVRRLASVRLPSLEHHHHHH", "soluble on expression in E. coli": "soluble"}, {"sequence": "MGFHLRNSLALPPDTPAVKVQSAVQYSELAKLLRRGLKASGATLADEDAKTGFAQVQVLSERWGDLPIAIDSQGRAQEYSLRYAAIFTVTTANGAVLVPQQVIELSRDYVSPPVDATGTATEREILADELRKDMSASILRRIDSVVRARLKHGESLESTPTAPLPPAPVQPTTLPESSVPAALPPAPTSGNLEHHHHHH", "soluble on expression in E. coli": "not soluble"}]}]}
